Key:
circulating cytokines = test: Plasma cytokines by MSD V-plex Proinflammatory Panel 1 (Example 14); type: in vivo, mice
Excerpt: Plasma cytokines were quantified using the V-plex Proinflammatory Panel 1 Mouse Kit. Plasma IL-1Ra was quantitated by sandwich immunoassay using an antibody pair from the Mouse IL-1Ra/IL-1F3 DuoSet ELISA (R&D Systems #DY480), Streptavidin SULFO-TAG Labeled (MSD #R32AD-1), Multi-Array 96 Plate Pack, SECTOR Plate MSD #L15XA-3 and Read Buffer T (4×) (MSD #R92TC-2). Samples were read on the QuickPlex SQ 120 plate reader (Meso Scale Discovery, Rockville, Md.).

[1] = test system: IFNγ, IL-1β, IL-2, IL-6, IL-8, TNFα; test: Single oral capsule dose in NHP: plasma proinflammatory cytokines; type: in vivo, Macaca fascicularis
Experimental: The panel of cytokines (IFNγ, IL-1β, IL-2, IL-6, and IL-8) was evaluated using a multiplex kit available from MSD. The assays in this panel were sandwich immunoassays. The MSD plate came precoated with capture antibodies on independent and pre-defined spots, and samples were quantitated against an 8-point standard curve prepared using a mixture of the cytokines (Proinflammatory Panel 1 (human) Calibrator Blend) from MSD. The standards included 0 pg/mL and these concentration ranges: IFNγ (0.37-1500 pg/mL), IL-1β (0.14-589 pg/mL), IL-2 (0.36-1490 pg/mL), IL-6 (0.18-721 pg/mL) and IL-8 (0.14-553 pg/mL).
The MSD plate (pre-coated with capture antibodies) was washed 3 times with PBST before use. Standards were prepared in Diluent 2 (MSD Cat No R51BB) and test samples diluted 2 fold in Diluent 2. Standards and diluted samples were added to the assay plate, and the plate incubated for 2 hours at room temperature with shaking. The plate was washed 3 times with PBST, and a mixture of 1×SULFO TAG detection antibodies added to the plate. The plate was incubated for 2 hours at room temperature with shaking. Following a wash step, 2×MSD Read buffer was added to the wells of the plate, and the plate read using the MSD Sector Imager 600 plate reader. The lower limit of detection of each analyte was defined as 2.5 standard deviation above background.
The purpose of the TNFα immunoassay was to quantify NHP TNFα concentration in plasma. The antibody pair in this immunoassay reacted with both human and NHP TNFα. Samples were quantitated using an 8-point standard curve prepared from a human TNFα calibrator that ranges in concentration from 5.6-4052 pg/mL and includes 0 pg/mL.
The biotinylated anti-NHP TNFα capture antibody was added to a MSD Small Spot Streptavidin plate and incubated for an hour at RT with shaking. Controls were prepared in pooled plasma, standards in Diluent 43 (MSD Cat No R50AG), and test samples were diluted 2 fold in Diluent 43. […] Following a wash step, 2×MSD Read buffer was added to the wells of the plate, and the plate read using the MSD Sector Imager 600 plate reader. […]

B1: IL-10 delivery construct: recombinant homodimeric fusion protein: N-terminal methionine, cholix386 domain, polyGlySer spacer, recombinant human IL-10 (protein)
chain: MVEEALNIFDECRSPCSLTPEPGKPIQSKLSIPSDVVLDEGVLYYSMTINDEQNDIKDEDKGESIITIGEFATVRATRHYVNQDAPFGVIHLDITTENGTKTYSYNRKEGEFAINWLVPIGEDSPASIKISVDELDQQRNIIEVPKLYSIDLDNQTLEQWKTQGNVSFSVTRPEHNIAISWPSVSYKAAQKEGSRHKRWAHWHTGLALCWLVPMDAIYNYITQQNCTLGDNWFGGSYETVAGTPKVITVKQGIEQKPVEQRIHFSKGNAMSALAAHRVCGVPLETLARSRKPRDLTDDLSCAYQAQNIVSLFVATRILFSHLDSVFTLNLDEQEPEVAERLSDLRRINENNPGMVTQVLTVARQIYNDYVTHHPGLTPEQTSAGAQAGGGGSGGGGSGGGGSPGQGTQSENSCTHFPGNLPNMLRDLRDAFSRVKTFFQMKDQLDNLLLKESLLEDFKGYLGCQALSEMIQFYLEEVMPQAENQDPDIKAHVNSLGENLKTLRLRLRRCHRFLPCENKSKAVEQVKNAFNKLQEKGIYKAMSEFDIFINYIEAYMTMKIRN
modifications: homodimer
Circulating cytokines
  suppression of induction of plasma IL-4 (trend): 62%
  suppression of induction of plasma IL-6 (trend): 61%
  suppression of induction of plasma IL-12p70 (trend): 65%
  suppression of induction of plasma KC/GRO (trend): 51%
Circulating cytokines; p<0.05
  plasma IL-1β and IL-2 vs Vehicle: significantly reduced
[1]; 1-82 mg oral capsules
  plasma IFNγ, IL-1β, IL-2, IL-8, IL-6: not associated with any consistent trends
[1]; all samples below limit of detection
  plasma TNFα: no induction
[1]; compared with intravenous administration
  plasma IL-1Ra and IFN-γ after oral enteric-coated capsules: increased IL-1Ra without significant induction of IFN-γ

From patent US11466067B2 (priority 2019, dated 2022)
